Laboratory results from PMC5093151.

System: GII.4 Sydney (SYV) norovirus VLP, assembled capsid protein VP1 (Human norovirus GII.4 Sydney)
Experiment: ELASA (plate binding)
Details: VLP heated 75 C 1 min (partly denatured); 1 uM aptamer; ELASA: VLPs on polystyrene plate, blocked with 5% skim milk in PBS + 0.05% Tween 20 with 10 nM unrelated primers (2 h, room temperature), 1 uM biotinylated …

“AGTATACGTATTACCTGCAGCTGGGAAGAGGTCCGGTAAATGCAGGGTCAGCCCGGAGAGCGATATCTCGGAGATCTTGC [M6-2]” was tested, and the binding signal (% of signal with untreated VLP) was 20.1.
